For assay [1], the target named is human VEGFA165 (human) (UniProt P15692). Kind of assay: cell-based or functional assay.
The target is the same in assay [2]. Description: SPR Biacore 8K, VEGFA165 (GenScript) on CM5 at low immobilization, protein as analyte, 1:1 model. On the technique in general: SPR reads the build-up and loss of mass on a sensor chip optically.

Results on 2 substances are retold here after patent EP4574846A1.

Sequence of human VEGFA165 (human) (P15692 other isoform, or with tags, fused parts or gaps limits assumed): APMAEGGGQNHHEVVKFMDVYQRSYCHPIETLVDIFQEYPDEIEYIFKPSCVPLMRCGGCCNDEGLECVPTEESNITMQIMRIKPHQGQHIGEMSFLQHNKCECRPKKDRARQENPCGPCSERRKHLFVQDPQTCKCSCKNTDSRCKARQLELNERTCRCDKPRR

On to Aflibercept (Fc fusion), for which, in assay [1], the HUVEC proliferation inhibition IC50 was 0.81 nM and the HUVEC proliferation inhibition Maximum inhibition rate (%) is 60%. Moreover, in assay [2], the dissociation constant (Kd) amounted to 0.0584 nM, the koff is 9.57e-05 s⁻¹ and the kon was determined as 1.64e+06 M⁻¹ s⁻¹.
Turning to “human IgG1 antibody (hIgG1 control) that binds to HIV”, the HUVEC proliferation inhibition Maximum inhibition rate (%) in assay [1] stood at 0%.

As usually defined, the Kd is a measure of binding affinity in units of concentration. Low readings indicate tighter binding, high ones weaker binding. As usually defined, the koff is the first-order rate constant of dissociation. The kon is the rate constant with which the complex forms. Higher therefore signals faster complex formation.
